Experimental data as given in patent US20090312403A1.

B1: WT1 peptide p228-236 (…) (peptide)
peptide: QMTSQLECM
B2: WT1 peptide p329-337 (…) (peptide)
peptide: GCNKRYFKL
B3: WT1 peptide p225-233 (…) (peptide)
peptide: NLYQMTSQL
B4: WT1 peptide human p10-18 (…) (peptide)
peptide: ALLPAVPSL
B5: WT1 peptide p221-229 (…) (peptide)
peptide: YSSDNLYQM
B6: WT1 peptide p235-243 (…) (peptide)
peptide: CMTWNQMNL
B7: WT1 peptide human p136-144 (…) (peptide)
peptide: SCLESQPAI
B8: WT1 peptide p239-247 (…) (peptide)
peptide: NQMNLGATL
B9: WT1 peptide P124-132 (…) (peptide)
peptide: QARMFPNAP
B10: WT1 peptide P117-125 (…) (peptide)
peptide: PSQASSGQA
B11: WT1 peptide P120-128 (…) (peptide)
peptide: ASSGQARMF
B12: WT1 peptide P128-136 (…) (peptide)
peptide: FPNAPYLPS
B13: WT1 peptide P118-126 (…) (peptide)
peptide: SQASSGQAR
B14: WT1 peptide P131-139 (…) (peptide)
peptide: APYLPSCLE
B15: WT1 peptide P119-127 (…) (peptide)
peptide: QASSGQARM
B16: WT1 peptide P129-137 (…) (peptide)
peptide: PNAPYLPSC
B17: WT1 peptide P125-133 (…) (peptide)
peptide: ARMFPNAPY
B18: WT1 peptide P127-135 (…) (peptide)
peptide: MFPNAPYLP
B19: WT1 peptide P130-138 (…) (peptide)
peptide: NAPYLPSCL
B20: WT1 peptide P121-129 (…) (peptide)
peptide: SSGQARMFP

These binders were tested against mouse B6 class I antigens (H-2^b: D^b or K^b) on RMA-S cells (mouse) (assay: RMA-S cells incubated with peptide (25 ug/ml), flow cytometry with FITC anti-D^b or anti-K^b).

Row | Binder | Binding Affinity to Mouse MHC Class I (% increase of D^b or K^b on RMA-S cells) [%]
1 | B1 | 1.2
2 | B2 | 1.2
3 | B3 | 5.8
4 | B4 | 2.2
5 | B5 | 0.8
6 | B6 | 33.6
7 | B7 | 52
8 | B8 | 1

These binders were tested against mouse B6 class I antigens (H-2^b: D^b or K^b) on RMA-S cells (mouse) (assay: binding of 9mer peptide to mouse B6 (H-2^b) class I antigens, RMA-S cell assay).

Row | Binder | Binding Affinity to Mouse MHC Class I [%]
9 | B9 | 1
10 | B10 | 2
11 | B11 | 1
12 | B12 | 1
13 | B13 | 2
14 | B14 | 1
15 | B15 | 2
16 | B16 | 1
17 | B17 | 1
18 | B18 | 2
19 | B19 | 79
20 | B20 | 1
